Source: paper PMC8116058 (2021)
Substitutions are numbered along the chain they refer to.

B1: TmrA^E523QB (catalytically reduced variant of TmrAB) (complex)
chain 1: MTEDTYSKAFDRALFARILRYVWPYRLQVVLALLFLLVVTLAAAATPLFFKWAIDLALVPTEPRPLAERFHLLLWISLGFLAVRAVHFAATYGETYLIQWVGQRVLFDLRSDLFAKLMRLHPGFYDRNPVGRLMTRVTSDVDAINQFITGGLVGVIADLFTLVGLLGFMLFLSPKLTLVVLLVAPVLLAVTTWVRLGMRSAYREMRLRLARVNAALQENLSGVETIQLFVKEREREEKFDRLNRDLFRAWVEIIRWFALFFPVVGFLGDFAVASLVYYGGGEVVRGAVSLGLLVAFVDYTRQLFQPLQDLSDKFNLFQGAMASAERIFGVLDTEEELKDPEDPTPIRGFRGEVEFRDVWLAYTPKGVEPTEKDWVLKGVSFRVRPGEKVALVGATGAGKTSVVSLIARFYDPQRGCVFLDGVDVRRYRQEELRRHVGIVLQEPFLFSGTVLDNLRLFDPSVPPERVEEVARFLGAHEFILRLPKGYQTVLGERGAGLSTGEKQLLALVRALLASPDILLILDQATASVDSETEKRLQEALYKAMEGRTSLIIAHRLSTIRHVDRILVFRKGRLVEEGSHEELLAKGGYYAALYRLQFQEA
chain 2: MTGRSAAPLLRRLWPYVGRYRWRYLWAVLAGLVSIFFFVLTPYFLRLAVDAVQAGRGFGVYALAIVASAALSGLLSYAMRRLAVVASRQVEYDLRRDLLHHLLTLDRDFYHKHRVGDLMNRLNTDLSAVREMVGPGILMGSRLSFLVLLAFLSMYAVNARLAFYLTLILPGIFLAMRFLLRLIDRRYREAQEVFDRISTLAQEAFSGIRVVKGYALERRMVAWFQDLNRLYVEKSLALARVEGPLHALLGFLMGFAFLTVLWAGGAMVVRGELSVGELVQFNAYLAQLTWPILGLGWVMALYQRGLTSLRRLFELLDEKPAIRDEDPLPLALEDLSGEVRFEGVGLKRDGRWLLRGLTLTIPEGMTLGITGRTGSGKSLLAALVPRLLDPSEGRVYVGGHEARRIPLAVLRKAVGVAPQEPFLFSETILENIAFGLDEVDRERVEWAARLAGIHEEILAFPKGYETVLGERGITLSGGQRQRVALARALAKRPKILILDDALSAVDAETEARILQGLKTVLGKQTTLLISHRTAALRHADWIIVLDGGRIVEEGTHESLLQAGGLYAEMDRLQKEVEA
B2: TmrAB (heterodimeric ABC transport complex from Thermus thermophilus, wild type) (complex)
chain 1: B1 chain 1 with Q523E
chain 2: B1 chain 2

What was measured:
[1] = biological target: T1, macrocyclic peptide CP14, fluorescein-labeled (CP14^F) (N-terminal N-chloroacetyl-D-tyrosine joined by a thioether to a cysteine; fluorescein on the side chain of the C-terminal lysine; C-terminal amide); assay: FP; outward-facing, Mg-ATP trapped, detergent-solubilized
[2] = biological target: T2, macrocyclic peptide CP12, fluorescein-labeled (CP12^F) (N-terminal N-chloroacetyl-D-tyrosine joined by a thioether to a cysteine; fluorescein on the side chain of the C-terminal lysine; C-terminal amide); assay: as above
[3] = biological target: T1, macrocyclic peptide CP14, …; assay: FP; inward-facing, no Mg-ATP, detergent-solubilized
[4] = biological target: T2, macrocyclic peptide CP12, …; assay: as above

Row | Binder | Kd [1] | Kd [2] | Kd [3] | Kd [4]
1 | B1 | 50 nM | 350 nM |  | 
2 | B2 |  |  | 100 nM | 140 nM
